Data taken from the supplement of paper PMC10567573.

B1: GMCL1 (parent)
chain: FCYCAGSHKRKRSSGSFCYCHPDS

Variants of: B1
Assay: protein stability index of a GFP-peptide fusion (GPS, HEK-293T) (PSI 1-6); higher = more stable
Details: c terminus: a fixed tail appended
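Note: lentivirally expressed fusions sorted by FACS into six bins by GFP to DsRed ratio, PSI derived from sequencing read proportions per bin multiplied by bin number.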

Protein stability index: each site, then its substitutions
K9: P 1.52; Y 2.8; D 1.99; F 2.13; T 1.29; S 2.76; R 1.61; A 1.63; M 1.77; Q 2.01; W 2.62; V 2.57; H 1.86; N 2.05; G 1.57; C 2; I 1.94; L 1.99; E 2.14
G15: I 2.41; S 2.17; H 2.07; T 1.96; V 2.6; M 1.21; P 1.6; C 1.5; W 2.26; R 1.62; K 1.72; E 2.67; L 3.16; Y 2.56; D 2.25; F 1.8; A 1.61; N 2.81
S14: N 2.37; D 2.18; T 1.46; W 2.03; M 2.04; L 2.6; E 1.87; H 2.79; Y 2.07; K 1.61; P 1.93; C 1.86; I 1.64; A 2.2; F 2.35; G 1.89; R 2.02; Q 1.89; V 1.89
K11: G 1.97; T 2.22; R 1.98; Q 1.33; M 2.29; A 1.59; V 1.39; C 1.77; E 1.87; P 2.31; H 2.18; Y 2.95; I 2.92; D 2.45; L 2.41; F 1.68; S 2.85; N 1.93; W 2.03
S7: W 1.9; L 1.89; Q 1.77; I 1.75; K 2.29; N 2.16; T 2.98; P 1.7; V 1.93; M 1.98; H 1.59; Y 1.59; R 2.34
R12: F 1.64; N 2.01; H 1.96; V 1.89; L 1.63; I 1.75; A 2.04; T 2.43; C 1.85; Y 2.56; S 1.74; G 1.38; M 1.54; E 1.15; K 1.97; Q 2.33; W 2.9; D 2.06; P 2.44
R10: E 2.5; M 1.9; H 1.68; D 2.02; Q 2.29; A 2.48; W 1.92; V 1.81; Y 1.85; N 2.24; L 1.99; T 2.27; F 1.4; I 2.32; S 1.82; G 2.27; P 1.9; K 1.96
H8: L 1.1; N 2.19; Q 1.43; I 1.48; C 2.37; F 1.97; D 1.67; R 1.9; T 1.67; P 1.94; Y 2.57; M 1.66; S 2.33; G 2.88; W 2.59; V 1.89; K 1.99; E 2.1
S13: V 1.86; D 2.74; C 2.17; H 2.21; M 2.04; N 1.64; A 1.95; P 2.67; F 2.24; R 1.85; W 1.84; G 1.56; E 2.02; K 1.96; Q 1.7; L 2.5; Y 1.7; T 2.11; I 1.88
S16: F 2.41; D 1.88; E 3.31; A 2.33; C 1.91
